Paper PMC10358891, “The AMP deaminase of the mollusk Helix pomatia is an unexpected member of the adenosine deaminase-related growth factor (ADGF) family” (PLOS ONE, 2023)

Substrate: Nc1ncnc2c1ncn2[C@@H]1O[C@H](COP(=O)(O)O)[C@@H](O)[C@H]1O
Experiment: spectrophotometric deamination assay, initial rates, Lineweaver-Burk
Assay type: biochemical, Helix pomatia
Conditions: 20 mM Tris-HCl pH 7.5, 50 mM NaCl, 25 °C (general assay buffer)
Source text: spectrophotometric deamination assay, initial rates, Lineweaver-Burk on […]

B1: HPAMPD (recombinant H. pomatia AMP deaminase) (Helix pomatia) (protein)
chain: LAVRFPTMDEYTNAREELIGSEQYLRVGGSINLNNKEKKLNQFILREKRAIIENSRLNKTQYIPAVSFFLSKSQMESTPIFKIIKDMPKGAALHLHDTASARIDWIVSNATYRDHVYMCMDQDNFVRLTVSGTGPPANSGCEWKLVETERANSGDIAAFDHWLKSNISLLTTDPLVTYPSLDKVWGRFDKHFSQLRGIIYHTPIRRDYYRQILEEFRSDNVQYVEVRSSLSGYYDLDGTVHDPEYGLQLYKAVTEEFVRTYPDFSGAKIIKSTARVKPNTDIFNDVKLSMDLYKRYPGFFLGFDLVAQEDPNTSLLGYIDSLLYPSRQNPPVSLPYYFHAGETNWQGTEVDYNLVDALLLNATRIGHGFALIKHPRVIELVKSRGVAVEVNPVSNQLLGLVKDLRNHAAAPLLAQNVPVVISSDDPGVWEALPMSHDMYVAFMDLVGEDAGLDVLKQLVWNSIQYSSMNATEKKTALKLLQAKWNNFINDSLIKWKLTNKKVI
notes: secreted from Pichia pastoris with alpha-factor signal; C-terminal His10; Endo Hf treated; 58676 Da; ORF 536 residues; homodimer predicted
B1 gave a Km of 25 µM and a kcat of 170 per second.
